Paper PMC5498717, “Linking functions: an additional role for an intrinsically disordered linker domain in the transcriptional coactivator CBP” (Scientific Reports, 2017)

Target: the molecule itself
Experiment: cross-linking; BS3 0.25 mM, 15 min at RT in PBS with 1 mM DTT, proteins mixed about 1:1; SDS-PAGE, anti-His and anti-GST Western blots

B1: ZFP106-f (residues 1265-1521 of ZFP106), His-tagged (domain or fragment, human, UniProt Q9H2Y7 1265-1521, looked up)
chain: KFSVEQRNTRNRENSPSSQSAGLSSINKEGEEPTKGNSGSEACTSSFLRLSFASETPLEKEPHSPADQPEQQAESTLTSAETRGSKKKKKLRKKKSLRAAHVPENSDTEQDVLTVKPVRKVKAGKLIKGGKVTTSTWEDSRTGREQESVRDEPDSDSSLEVLEIPNPQLEVVAIDSSESGEEKPDSPSKKDIWNSTEQNPLETSRSGCDEVSSTSEIGTRYKDGIPVSVAETQTVISSIKGSKNSSEISSEPGDDDE
notes: The His tag is named for the cross-linking and detected by anti-His blot there and in the acetylation assays; also called wt ZFP106-f; His-tagged ZFP106-f
stoichiometry N: 2
